Patent publication US12077763B2, “RNA-based control of powdery mildew” (Greenlight Biosciences, Inc., priority 2021, dated 2024)

B1: ES43: 497 bp Cyp51-dsRNA, trigger SEQ ID NO 108; gene target Cytochrome P450 (nucleic acid)
DNA: TCTTACCATGAAGCGTTCCATTCCTATGTAACAATAATACAAAATGAAGTAGAGGCATATATAAACAATTGCGTTAGCTTTCAGGGTGAGAGTGGCACAGTAAACATCTCAAAAGTTATGGCGGAAATCACTATATATACTGCTTCACATGCCTTACAAGGAGAAGAGGTCCGTGAGAATTTTGACTCATCTTTTGCCGCTCTTTATCATGATCTTGATATGGGATTTACACCGATCAACTTTACATTTTACTGGGCACCTCTACCTTGGAATCGTGCTCGTGATCATGCCCAAAGAACTGTTGCTAGGACTTATATGAATATAATCCAAGCTCGTAGAGAAGAGAAAAGAAGCGGTGAGAATAAGCATGATATAATGTGGGAGTTGATGCGTTCCACTTATAAAGACGGGACTCCGGTACCTGATCGAGAGATAGCGCATATGATGATAGCCCTTCTGATGGCTGGACAACACTCTTCGTCATCCACGAGCTCATG
B2: GS3336: sprayed dsRNA for which activity had been shown by leaf assay; presumably listed in Table 1B (nucleic acid)
sense: AAUGAUGUAAGCUCCAUGGGAAUUCAUAACCUGAGUGAGCAUCAAUAGCUUGGAAUAGUCGACAGAUAAUCCAACAAUACAUCGUAACUAAGUGAAGAUUGCCAGUUAUCAGACACCAUACAGUUGGCAUUAAGACUGUUCCUGCGCCAAGAACCAUUGUUUCUAUUGGUGAAGCAUAUUCAGCUGCUAGUCCGAAGGGUGCAGAGUAAUGAUGAUGUAUUUUAUGAAUAUGUUUGUAGAAAGGACCCCAAUGAAAUAAUCGAUGCAUCCAAUAAUGCCACGUAUCUUCCAACACGAAAAAGAAAGCAAUCUGAAGACACAUAGUUUUUAAUGAUGGAAAUGGGACACCAACAUCCAUACCACAAGCCUUUGUCAAUGGAUGAAAAAGCCAAAUUUGA
antisense: UCAAAUUUGGCUUUUUCAUCCAUUGACAAAGGCUUGUGGUAUGGAUGUUGGUGUCCCAUUUCCAUCAUUAAAAACUAUGUGUCUUCAGAUUGCUUUCUUUUUCGUGUUGGAAGAUACGUGGCAUUAUUGGAUGCAUCGAUUAUUUCAUUGGGGUCCUUUCUACAAACAUAUUCAUAAAAUACAUCAUCAUUACUCUGCACCCUUCGGACUAGCAGCUGAAUAUGCUUCACCAAUAGAAACAAUGGUUCUUGGCGCAGGAACAGUCUUAAUGCCAACUGUAUGGUGUCUGAUAACUGGCAAUCUUCACUUAGUUACGAUGUAUUGUUGGAUUAUCUGUCGACUAUUCCAAGCUAUUGAUGCUCACUCAGGUUAUGAAUUCCCAUGGAGCUUACAUCAUU
B3: GS1875: dsRNA trigger SEQ ID NO 168; gene target Mitochondrial RNA-splicing protein MRS3 (nucleic acid)
chain: AAAGCTCCAGCTGAGCAATGAGTAAGTGGATCGTAAGCCTTTGATGGGTTCAGAAATGTAGATACAGATTCGTATGCGAGAAGTTGAAGTGCTGTAAATGGTACAGTCATGGAAAGAGTAGTTGGATACGAGATATAGAAGGCTGTGATGCCTTCAGTGCGATAGATATAGCGGGCACAATCACTCAGTGATCTATAAATTTTGCGAGAGTTATGCATTTGCATTCTTTGCTTTATTACATCAAATGGGTTCATTAAAGCATCACTTGCAATTGTTGCGCATGCCCCACTTGTAATGCGCATGCCCCACTTGTAACTATGTAGCTTCAGTAAGTGCTCAATATCAAGGATAAATTGGCGATGTAGTCATATATGTCTGATTCCTTAATCAAAATTCTTAATACAGACCTGCTGCAATAGGATGATGAGCTCCTGTTTGATTACCTCCCATGAGATGTTTGACAGCTTCATAGGTTGCAAAATA
B4: GS1879: dsRNA trigger SEQ ID NO 142; gene target Chaperone-dependent E3 ubiquitin protein ligase (nucleic acid)
chain: CTGAATTTCTGAGTTCCGCTATCTTTTTATCTCTTCTTTCCTCAAGTCCGTATTGAAGTTCGTGAGATAATTTACTTCGATTCATCTCTCTTTTACTTTCTTGTGCCTCCCATCCCATTTTTTTACATTTCATCACTAACTCAGTTATTGGCTCTATACTGTTAGCCCCTTTTGTTCCTGCATACATCTCTTCCATACAAAATTTTCGCGCAGTCTTTGCAGATTGAAATGCCTCATCGTAATAATTTAGCGCCAGTTGTGCTTGGGCCAGTTGGAAATATGCTTTCATATTTGATGGGAGGAGACGTAAAGCGCATTGGGCATCTTCAATTACACGATGATGAAGAGATAATTTAAGAAGTACCATTGCACGATTTGTATAAAGTACTGGATTTTGGGGATCACAATTGATCGCTTTTGTGTAAAACATTTCAGCACGCGTATAATCACCAGACTTAAAATATTTATTTC

Experiments:
E. necator [1] = assay: Leaf disc assay, dry inoculum (settling tower), decrease in disease severity / hyphal growth (Example 2); conditions: decrease in disease severity (hyphal growth) relative to untreated control, value ± SE; for % decrease =/− SE TP1: time point 1 (untreated control hyphal growth ≥50%); for % decrease =/− SE TP2: time point 2
E. necator [2] = assay: Leaf disc assay, wet inoculum (conidial suspension), disease severity by automated phenotyping (Example 1)
E. necator [3] = assay: Greenhouse trial, powdery mildew on grapes, AUDPC of disease incidence and severity (Example 4); type: in vivo, E. necator in grapes
Experimental: A greenhouse trial was performed to evaluate the efficacy of ES43 dsRNA for controlling E. necator in grapes compared with commercial fungicides (Luna Experience/Pristina) and biofungicides (Regalia Biofungicide/Double Nickel).
Disease incidence was calculated based on the total number of leaves on the plant infected with powdery mildew, out of number of leaves present. Disease severity was calculated based on the percent (%) leaf surface infected overall for each plant. Area under the disease progress curve (AUDPC) was then calculated throughout the entire trial period (FIGS. 5 and 6).

E. necator [4] = assay: Field trial, natural infestation on Chardonnay grapes, leaf disease incidence (Example 5); type: in vivo, E. necator on Chardonnay grapes; conditions: FIG. 7
Experimental: A field trial was conducted in ACDS Research vineyard (Dundee, New York) with natural disease infestation on grapes. The trial was set up in four rows (180 ft^2) of Chardonnay grapes, with plots consisting of four vines. The trial included 11 treatments (Table 5), each replicated four times. The grower spray program from budbreak through pre-bloom consisted of sulfur, and trial applications were initiated at bloom. Eight to fifteen applications of ES43 (6.25, 25, 50 and 100 g Ai/ha) were compared with Regalia (470 g Ai/ha) and DoubleNickel (10 billion Cfu/ml), Pristine (333 g Ai/ha) Rally 40 WSP (140 g Ai/ha) and Luna Experience (250 g Ai/ha). Disease incidence, total number of leaves infected out of number of leaves present on several branches, Weekly assessments was performed 1 day before ES43 applications. Data was collected one week after the last application for all treatments at the close of the experiment.
Disease incidence was calculated based on number of leaves infected with powdery mildew out of 20 total leaves.

Cyp51 transcripts = assay: Gene specific qRT-PCR of ES43 (Cyp51) transcripts in leaf discs (Example 3); type: in vivo, E. necator
Experimental: FIG. 3. Gene specific qRT-PCR analysis of ES43 (Cyp51) transcripts at 6-dpi in leaf discs. Two housekeeping genes (GDP1 and TEF1) were used as endogenous references to examine the expression of Cyp51. Gene expression was normalized to the untreated control. Statistical significance at p<0.01, Mann-Whitney U test.
(§1) qRT-PCR was performed to validate the effect of exogenous dsRNA on the expression of selected targeted genes for which activity of dsRNA had been shown by leaf assay (as described in Example 2). Samples were treated with dsRNA, inoculated after 24 hours and six leaf discs per treatment were collected at six-days post inoculation (dpi) for further analysis.

[5] = system: GS1885, GS3336, GS1875, GS1879 transcripts; assay: Gene specific qRT-PCR of GS1885, GS3336, GS1875, GS1879 transcripts in leaf discs (Example 3); type: in vivo, E. necator; conditions: six-days post inoculation, FIG. 4
Experimental: FIG. 4. Gene specific qRT-PCR analysis of GS1885, GS3336, GS1875, GS1879 transcripts at 6-dpi in leaf discs. The 2-ΔΔCT method was used to analyze the relative changes in gene expression. Gene expression was normalized to the untreated control. GS145 (a non-target dsRNA sequence) was also included as control. Asterisks denote significant differences compared to untreated control (UTC). Statistical comparisons between treatments were performed with ANOVA, followed by Welch's analysis.
as §1

| Molecule | % decrease =/− SE TP1 (E. necator [1]) | % decrease =/− SE TP2 (E. necator [1]) | LSMeans difference (Dunnett's), disease severity (E. necator [2]; Run1, ES43 10 ppm vs negative control GS4 25 ppm) | LSMeans difference (Dunnett's), disease severity (E. necator [2]; Run1, ES43 25 ppm vs negative control GS4 25 ppm) | LSMeans difference (Dunnett's), disease severity (E. necator [2]; Run 2, ES43 10 ppm vs negative control GS4 25 ppm) | LSMeans difference (Dunnett's), disease severity (E. necator [2]; Run 2, ES43 25 ppm vs negative control GS4 25 ppm) | LSMeans difference (Dunnett's), disease severity (E. necator [2]; Run 3, ES43 10 ppm vs negative control GS145 25 ppm) | LSMeans difference (Dunnett's), disease severity (E. necator [2]; Run 3, ES43 25 ppm vs negative control GS145 25 ppm) | powdery mildew development on leaf disks (E. necator [2]; nine-dpi, 10 and 25 ppm, compared to untreated and non-dsRNA targets) | fungal growth determined by disease severity (FIG. 1) (E. necator [2]; three individual runs combined, 10 and 25 ppm, vs controls GS145 or GS4 (p<0.01)) | AUDPC based on disease severity vs. untreated control (E. necator [3]; FIG. 6) | reduction in disease incidence, twice per week vs once per week (E. necator [3]; twice per week applications at the same rate, numerically) | AUDPC based on disease severity, compared with commercial fungicide and biofungicides (E. necator [3]; weekly and twice-per-week spray interval, FIG. 6) | AUDPC based on disease incidence (E. necator [3]; weekly spray interval, all rates (6.25-100 g ai/ha), FIG. 5) | leaf disease incidence (E. necator [4]; 6.25 g Ai/ha, 7-day and twice a week (3/4-day), 57 days after initial treatments) | leaf disease incidence (E. necator [4]; 50 g Ai/ha, compared to untreated control) | reduction of relative amounts of ES43 (Cyp51) transcripts (Cyp51 transcripts; 6-dpi, compared to untreated control, FIG. 3) | gene silencing in E. necator by sprayed dsRNA (Cyp51 transcripts; qRT-PCR, six-days post inoculation) | gene silencing in E. necator by sprayed dsRNA / gene expression levels vs untreated control [5] |
| --- | --- | --- | --- | --- | --- | --- | --- | --- | --- | --- | --- | --- | --- | --- | --- | --- | --- | --- | --- |
| B1 | 41 ± 3% | 28 ± 5% | −61.5000 | −49.1667 | 10.0000 | −26.3750 | −24.0000 | −17.0625 | significant decrease of powdery mildew development | Significant decrease of fungal growth | significantly decreased severity | greater reduction in disease incidence compared to once per week applications at the same rate | performed similarly to commercial fungicide and biofungicides | reduced powdery mildew AUDPC incidence with all rates similar to or better than the biofungicide standard | significantly decreased disease incidence | decreased incidence compared to untreated control | up to 70% | Induced Gene Silencing |  |
| B2 | 72 ± 2% | 57 ± 4% |  |  |  |  |  |  |  |  |  |  |  |  |  |  |  |  | Induced Gene Silencing |
| B3 | 55 ± 4% | 41 ± 5% |  |  |  |  |  |  |  |  |  |  |  |  |  |  |  |  | Induced Gene Silencing |
| B4 | 49 ± 5% | 41 ± 7% |  |  |  |  |  |  |  |  |  |  |  |  |  |  |  |  | Induced Gene Silencing |
